Measurements: PMC9482650, “Quantitative fragmentomics allow affinity mapping of interactomes” (Nature Communications, 2022)

T1: GRIP1_5, Q9Y3R0
T1 sequence (Q9Y3R0 568-668, limits assumed, looked up): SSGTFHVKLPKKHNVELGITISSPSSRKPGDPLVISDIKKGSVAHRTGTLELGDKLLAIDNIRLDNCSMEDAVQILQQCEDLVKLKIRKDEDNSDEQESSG

T2: LIN7A, O14910
T2 sequence (O14910 103-200, limits assumed, looked up): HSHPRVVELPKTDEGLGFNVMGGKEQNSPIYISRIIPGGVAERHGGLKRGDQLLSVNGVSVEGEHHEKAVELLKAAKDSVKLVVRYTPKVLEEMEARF

T3: RAPGEF6, Q8TEU7
T3 sequence (Q8TEU7 525-625, limits assumed, looked up): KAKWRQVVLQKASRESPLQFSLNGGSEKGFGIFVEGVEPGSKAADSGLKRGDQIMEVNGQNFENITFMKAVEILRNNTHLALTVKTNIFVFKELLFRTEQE

T4: TJP3_3, O95049
T4 sequence (O95049 375-456, limits assumed, looked up): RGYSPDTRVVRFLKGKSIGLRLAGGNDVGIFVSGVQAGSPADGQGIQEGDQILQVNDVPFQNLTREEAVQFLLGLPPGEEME

T5: GRIP1_3, Q9Y3R0
T5 sequence (Q9Y3R0 247-346, limits assumed, looked up): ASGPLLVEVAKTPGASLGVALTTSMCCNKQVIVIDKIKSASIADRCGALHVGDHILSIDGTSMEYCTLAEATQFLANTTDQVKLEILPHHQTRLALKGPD

T6: RHPN1, Q8TCX5
T6 sequence (Q8TCX5 508-602, limits assumed, looked up): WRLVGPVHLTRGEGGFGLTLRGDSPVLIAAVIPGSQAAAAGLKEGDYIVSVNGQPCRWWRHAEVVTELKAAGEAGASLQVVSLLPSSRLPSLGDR

T7: PDZRN3_1, Q9UPQ7
T7 sequence (Q9UPQ7 244-349, limits assumed, looked up): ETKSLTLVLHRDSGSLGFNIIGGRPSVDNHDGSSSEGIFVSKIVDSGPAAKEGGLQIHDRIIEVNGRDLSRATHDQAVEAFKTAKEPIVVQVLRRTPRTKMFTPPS

T8: RADIL, Q96JH8
T8 sequence (Q96JH8 971-1071, limits assumed, looked up): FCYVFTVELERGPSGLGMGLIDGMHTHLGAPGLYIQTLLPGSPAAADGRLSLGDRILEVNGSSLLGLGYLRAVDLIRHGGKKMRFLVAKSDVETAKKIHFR

T9: GRIP1_2, Q9Y3R0
T9 sequence (Q9Y3R0 145-248, limits assumed, looked up): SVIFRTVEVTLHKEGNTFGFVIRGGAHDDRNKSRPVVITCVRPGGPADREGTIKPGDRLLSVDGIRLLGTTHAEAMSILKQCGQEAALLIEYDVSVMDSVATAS

T10: FRMPD1, Q5SYB0
T10 sequence (Q5SYB0 52-145, limits assumed, looked up): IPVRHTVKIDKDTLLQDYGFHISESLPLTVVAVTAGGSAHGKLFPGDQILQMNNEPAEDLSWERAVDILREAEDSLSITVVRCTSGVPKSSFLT


Tests used:
Assay in all cases: holdup assay
Design in all cases: key: below the threshold = too weak to quantify, mostly under pKd 3.1 to 4
Conditions in all cases: plain residues with an end cap or a label only (N-terminal biotin on a linker: ado-ado)
DLG4_3, P78352 = target: DLG4_3, P78352
Chain of DLG4_3, P78352 (P78352 306-403): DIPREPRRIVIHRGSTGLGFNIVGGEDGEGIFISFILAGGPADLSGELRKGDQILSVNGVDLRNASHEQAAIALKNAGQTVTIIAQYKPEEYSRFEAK

MAGI1_1, Q96QZ7 = target: MAGI1_1, Q96QZ7
Chain of MAGI1_1, Q96QZ7 (Q96QZ7 1-106): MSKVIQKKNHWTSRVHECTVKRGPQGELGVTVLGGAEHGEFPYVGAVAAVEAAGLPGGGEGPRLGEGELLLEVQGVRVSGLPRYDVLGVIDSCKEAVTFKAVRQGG

GORASP2, Q9H8Y8 = target: GORASP2, Q9H8Y8
Inadl_10, Q8NI35 = target: Inadl_10, Q8NI35
Chain of Inadl_10, Q8NI35 (Q8NI35 1673-1763): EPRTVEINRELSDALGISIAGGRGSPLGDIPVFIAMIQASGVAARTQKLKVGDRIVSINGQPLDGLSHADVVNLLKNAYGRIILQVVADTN

GRIP1_5, Q9Y3R0 = target: T1, GRIP1_5, Q9Y3R0
LIN7A, O14910 = target: T2, LIN7A, O14910
NHERF4_2, Q86UT5 = target: NHERF4_2, Q86UT5
Chain of NHERF4_2, Q86UT5 (Q86UT5 220-308): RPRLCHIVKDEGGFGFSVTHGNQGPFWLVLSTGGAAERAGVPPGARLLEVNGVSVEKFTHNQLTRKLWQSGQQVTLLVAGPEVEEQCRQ

DLG1_1, Q12959 = target: DLG1_1, Q12959
HTRA1, Q92743 = target: HTRA1, Q92743
Chain of HTRA1, Q92743 (Q92743 360-477): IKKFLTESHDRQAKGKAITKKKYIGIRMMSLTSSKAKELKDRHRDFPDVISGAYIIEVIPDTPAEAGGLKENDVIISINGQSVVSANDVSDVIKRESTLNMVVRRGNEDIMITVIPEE

GOPC, Q9HD26 = target: GOPC, Q9HD26
RAPGEF6, Q8TEU7 = target: T3, RAPGEF6, Q8TEU7
TJP3_3, O95049 = target: T4, TJP3_3, O95049
GORASP1, Q9BQQ3 = target: GORASP1, Q9BQQ3
Chain of GORASP1, Q9BQQ3 (Q9BQQ3 1-208): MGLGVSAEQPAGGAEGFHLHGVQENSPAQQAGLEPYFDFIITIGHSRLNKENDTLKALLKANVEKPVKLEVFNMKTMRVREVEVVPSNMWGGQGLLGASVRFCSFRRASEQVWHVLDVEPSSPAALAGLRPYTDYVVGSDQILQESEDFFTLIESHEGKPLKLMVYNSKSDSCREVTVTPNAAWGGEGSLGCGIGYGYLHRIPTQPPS

PDZRN4_1, Q6ZMN7 = target: PDZRN4_1, Q6ZMN7
Chain of PDZRN4_1, Q6ZMN7 (Q6ZMN7 213-318): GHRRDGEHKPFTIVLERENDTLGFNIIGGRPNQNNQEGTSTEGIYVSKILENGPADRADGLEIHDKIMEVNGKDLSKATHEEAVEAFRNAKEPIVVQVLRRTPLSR

LNX1_3, Q8TBB1 = target: LNX1_3, Q8TBB1
Chain of LNX1_3, Q8TBB1 (Q8TBB1 500-596): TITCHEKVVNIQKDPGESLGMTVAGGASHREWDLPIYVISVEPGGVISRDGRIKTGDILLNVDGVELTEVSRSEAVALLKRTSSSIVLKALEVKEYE

PDLIM1, O00151 = target: PDLIM1, O00151
Chain of PDLIM1, O00151 (O00151 1-87): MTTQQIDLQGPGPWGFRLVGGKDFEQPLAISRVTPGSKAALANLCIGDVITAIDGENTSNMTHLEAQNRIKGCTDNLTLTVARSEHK

GRIP1_3, Q9Y3R0 = target: T5, GRIP1_3, Q9Y3R0
SCRIB_1, Q14160 = target: SCRIB_1, Q14160
Chain of SCRIB_1, Q14160 (Q14160 718-814): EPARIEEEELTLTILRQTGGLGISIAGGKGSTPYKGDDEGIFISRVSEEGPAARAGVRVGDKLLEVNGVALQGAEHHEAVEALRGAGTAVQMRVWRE

RHPN1, Q8TCX5 = target: T6, RHPN1, Q8TCX5
LNX1_1, Q8TBB1 = target: LNX1_1, Q8TBB1
Chain of LNX1_1, Q8TBB1 (Q8TBB1 261-371): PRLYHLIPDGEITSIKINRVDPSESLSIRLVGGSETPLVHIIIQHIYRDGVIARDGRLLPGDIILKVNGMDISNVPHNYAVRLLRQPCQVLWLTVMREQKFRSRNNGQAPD

PDZRN3_1, Q9UPQ7 = target: T7, PDZRN3_1, Q9UPQ7
DLG5_1, Q8TDM6 = target: DLG5_1, Q8TDM6
Chain of DLG5_1, Q8TDM6 (Q8TDM6 617-713): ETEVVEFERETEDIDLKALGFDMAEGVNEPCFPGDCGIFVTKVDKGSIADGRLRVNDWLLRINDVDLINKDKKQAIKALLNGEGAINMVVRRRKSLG

RADIL, Q96JH8 = target: T8, RADIL, Q96JH8
GRIP1_2, Q9Y3R0 = target: T9, GRIP1_2, Q9Y3R0
TJP2_1, Q9UDY2 = target: TJP2_1, Q9UDY2
Chain of TJP2_1, Q9UDY2 (Q9UDY2 24-128): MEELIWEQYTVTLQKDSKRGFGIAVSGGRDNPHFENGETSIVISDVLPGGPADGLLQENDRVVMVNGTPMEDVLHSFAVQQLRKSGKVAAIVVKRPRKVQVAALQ

FRMPD1, Q5SYB0 = target: T10, FRMPD1, Q5SYB0
NHERF4_4, Q86UT5 = target: NHERF4_4, Q86UT5
Chain of NHERF4_4, Q86UT5 (Q86UT5 464-550): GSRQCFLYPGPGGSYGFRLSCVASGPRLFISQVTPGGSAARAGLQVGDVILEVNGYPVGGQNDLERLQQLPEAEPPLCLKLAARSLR

MAST2, Q6P0Q8 = target: MAST2, Q6P0Q8
Chain of MAST2, Q6P0Q8 (Q6P0Q8 1099-1202): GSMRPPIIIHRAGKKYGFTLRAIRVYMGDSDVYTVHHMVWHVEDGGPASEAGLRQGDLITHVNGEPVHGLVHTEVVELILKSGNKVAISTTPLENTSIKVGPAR

Binder	pKd (DLG4_3, P78352)	pKd (MAGI1_1, Q96QZ7)	pKd (GORASP2, Q9H8Y8)	pKd (Inadl_10, Q8NI35)	pKd (GRIP1_5, Q9Y3R0)	pKd (LIN7A, O14910)	pKd (DLG1_1, Q12959)	pKd (HTRA1, Q92743)	pKd (GOPC, Q9HD26)	pKd (RAPGEF6, Q8TEU7)	pKd (TJP3_3, O95049)	pKd (GORASP1, Q9BQQ3)	pKd (PDZRN4_1, Q6ZMN7)	pKd (LNX1_3, Q8TBB1)	pKd (PDLIM1, O00151)	pKd (GRIP1_3, Q9Y3R0)	pKd (SCRIB_1, Q14160)	pKd (RHPN1, Q8TCX5)	pKd (LNX1_1, Q8TBB1)	pKd (PDZRN3_1, Q9UPQ7)	other results
VKQYADVEGF [HNRNPK, P61978;P61978-2]	below the threshold	below the threshold	below the threshold	below the threshold	below the threshold	below the threshold	below the threshold	below the threshold	below the threshold	below the threshold	below the threshold	below the threshold	below the threshold	below the threshold	below the threshold	below the threshold	below the threshold	below the threshold	below the threshold	below the threshold	pKd (NHERF4_2, Q86UT5): below the threshold; pKd (DLG5_1, Q8TDM6): below the threshold; pKd (RADIL, Q96JH8): below the threshold; pKd (GRIP1_2, Q9Y3R0): below the threshold; pKd (TJP2_1, Q9UDY2): below the threshold; pKd (FRMPD1, Q5SYB0): below the threshold
NTALVESEDL [PALLS, Q8WX93;Q8WX93-1]	below the threshold	below the threshold	below the threshold	below the threshold	below the threshold	below the threshold	below the threshold	below the threshold	below the threshold	below the threshold	below the threshold	below the threshold	below the threshold	below the threshold	5.47	below the threshold	below the threshold	below the threshold	below the threshold	below the threshold	pKd (NHERF4_4, Q86UT5): below the threshold; pKd (DLG5_1, Q8TDM6): below the threshold; pKd (RADIL, Q96JH8): below the threshold; pKd (GRIP1_2, Q9Y3R0): below the threshold; pKd (TJP2_1, Q9UDY2): below the threshold; pKd (MAST2, Q6P0Q8): 5.15; pKd (FRMPD1, Q5SYB0): below the threshold
SKQFDKNAYV [CLDN10, P78369]	below the threshold	below the threshold	below the threshold	below the threshold	below the threshold	below the threshold	below the threshold	3.97	below the threshold	below the threshold	3.68	below the threshold	below the threshold	below the threshold	below the threshold	below the threshold	below the threshold	3.57	below the threshold	below the threshold	pKd (NHERF4_2, Q86UT5): below the threshold; pKd (NHERF4_4, Q86UT5): below the threshold; pKd (DLG5_1, Q8TDM6): below the threshold; pKd (RADIL, Q96JH8): 4.18; pKd (GRIP1_2, Q9Y3R0): below the threshold; pKd (TJP2_1, Q9UDY2): 4.19; pKd (MAST2, Q6P0Q8): 4.02; pKd (FRMPD1, Q5SYB0): below the threshold
PAALPESTHM [SLC9A3, P48764]	below the threshold	below the threshold	below the threshold	below the threshold	below the threshold	below the threshold	below the threshold	below the threshold	below the threshold	below the threshold	below the threshold	below the threshold	below the threshold	below the threshold	below the threshold	below the threshold	3.57	below the threshold	below the threshold	below the threshold	pKd (NHERF4_2, Q86UT5): below the threshold; pKd (NHERF4_4, Q86UT5): below the threshold; pKd (DLG5_1, Q8TDM6): below the threshold; pKd (RADIL, Q96JH8): below the threshold; pKd (GRIP1_2, Q9Y3R0): below the threshold; pKd (TJP2_1, Q9UDY2): below the threshold; pKd (MAST2, Q6P0Q8): 5.35; pKd (FRMPD1, Q5SYB0): below the threshold
